Data on 2 molecules can be found in patent publication US20220267427A1 (SYSMEX, published 2022).

A value given as a limit tells only on which side of the number the result lay.

Experiment [1] deals with T1, fCK18 in apoptosis-induced HepG2 cell culture supernatant (human, UniProt P05783 239-397).
T1 construct: Natural CK18 fragment from the culture supernatant of apoptosis-induced HepG2 cells (band around 18 KDa); also called fCK18 in apoptosis-inducing cells
T1 sequence: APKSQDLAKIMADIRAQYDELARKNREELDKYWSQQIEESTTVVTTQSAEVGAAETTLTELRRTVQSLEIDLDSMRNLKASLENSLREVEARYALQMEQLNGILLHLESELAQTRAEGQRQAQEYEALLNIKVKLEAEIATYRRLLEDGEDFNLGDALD
The experiment in a line: HISCL sandwich immunoassay; K18-624 magnetic microbeads capture, K18-328Fab-ALP detector; fCK18 20.27 ng/mL.

The target of another experiment is T2, rfCK18 (239-396) (human, UniProt P05783 239-396).
T2 construct: Bought (Cloud-Clone-Corp.); captured through an anti-GST or penta HIS antibody, the tag is not described
T2 sequence: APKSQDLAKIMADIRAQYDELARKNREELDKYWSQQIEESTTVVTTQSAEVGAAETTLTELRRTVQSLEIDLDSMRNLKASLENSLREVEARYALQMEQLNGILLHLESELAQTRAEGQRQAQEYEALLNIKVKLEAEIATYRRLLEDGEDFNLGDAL
The experiment in a line: solid phase ELISA; antigen (0.3 ug/mL) captured by anti-GST or penta HIS antibody on plate, antibody 5 to 10 ng/mL. As to the method: (§1) (1) An ANTI GST antibody or a penta HIS antibody was added to an ELISA plat at 2.5 μg/mL and 50 μL/well, and the plate was allowed to stand at 4° C. overnight to immobilize the antibody. Thereafter, the plate was washed three times with PBST, and Buffer I′ (10 mM NaH₂PO₄.2H₂O, 149.7 mM NaCl, 2.5 mM EDTA 2Na, 0.10% BSA, pH 7.0) was added thereto at 200 μL/well to prepare a plate stored at 4° C. overnight. […] (3) The plate was washed three times with PBST, and 50 μL each of each antigen diluent was added thereto, followed by shaking for 45 minutes. […] (6) The plate was washed three times with PBST, and 15000-fold diluted Peroxidase-conjugated Affinipure F(ab)′2 Fragment Goat Anti-Mouse IgG (H+L) (Jackson) was added thereto at 50 μL/well, followed by shaking for 45 minutes. (7) The plate was washed three times with PBST, TMB Mix (1-step Ultra TMB-ELISA (Thermo Scientific):3% H₂O₂: Phosphate-Citrate buffer (Sigma)=15:0.15:14.85) was added thereto at 100 μL/well, and the mixture was reacted at room temperature for 10 minutes. Thereafter, 1 M H₂SO₄ was added thereto at 100 μL/well to stop the reaction. (8) Absorbance of the reaction solution at 450 nm was measured with a plate reader.
A general note: ELISA stands for enzyme-linked immunosorbent assay.

The target in experiment [2] is T1, fCK18 in apoptosis-induced HepG2 cell …. As to the kind of experiment: HISCL sandwich immunoassay; K18-624 magnetic microbeads capture, K18-328Fab-ALP detector.
Experiment [3] shares this target. The experiment in a line: plate ELISA with K18-624 magnetic microbeads, K18-328Fab-ALP detector; fCK18 0.09 ng/mL. As to the method:
(§2) Measurement samples of 3-fold dilution series (3-fold to 6561-fold dilution) were prepared from the apoptosis-induced HepG2 cell culture supernatant with a diluent (TBS, pH 7.5, 2% BSA), and fCK18 was measured. […] Based on the prepared calibration curve, fCK18 in the measurement sample was measured.
(§3) This solution was added to an ELISA plate at 25 μL/well, then each measurement sample was added at 25 μL/well, and the plate was incubated (1500 rpm, RT, 20 min). […] (3) After washing the plate, the HISCL (registered trademark) R4 reagent was added thereto at 50 μL/well, and then the mixture was stirred (1500 rpm, RT, 1 min). Thereafter, the HISCL (registered trademark) R5 reagent was added at 100 μL/well, and then the mixture was stirred (1000 rpm, RT, 10 sec). (4) Luminescence intensity was measured with a plate reader.

Experiment [4] shares this target. As to the kind of experiment: plate ELISA with K18-624 magnetic microbeads, K18-328Fab-ALP detector; fCK18 2.23 ng/mL. As to the method: as §2, §3
Experiment [5] has the same target. As to the kind of experiment: plate ELISA with K18-624 magnetic microbeads, K18-328Fab-ALP detector; fCK18 20.27 ng/mL. As to the method:
as §2, §3

A further experiment concerns the target T3, rfCK18 (127-430) (human, UniProt P05783 127-430).
T3 construct: Bought (Proteintech Inc.); captured through an anti-GST or penta HIS antibody, the tag is not described
T3 sequence: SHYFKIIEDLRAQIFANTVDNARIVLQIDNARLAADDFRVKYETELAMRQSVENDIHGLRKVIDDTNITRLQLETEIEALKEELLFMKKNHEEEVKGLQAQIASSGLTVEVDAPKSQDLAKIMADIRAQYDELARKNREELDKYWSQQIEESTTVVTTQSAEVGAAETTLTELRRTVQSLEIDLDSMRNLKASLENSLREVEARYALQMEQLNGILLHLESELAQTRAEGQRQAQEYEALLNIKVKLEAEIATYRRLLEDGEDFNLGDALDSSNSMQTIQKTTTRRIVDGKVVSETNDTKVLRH
The experiment in a line: solid phase ELISA; antigen (0.3 ug/mL) captured by anti-GST or penta HIS antibody on plate, antibody 5 to 10 ng/mL. As to the method: as §1

B1: K18-624 antibody (antibody, V domains shown)
VH: DVQLVESGGGLVQPGGSRKLSCAASGFTFSSFGMHWVRQAPEKGLEWVAYISSGSTTIYYADTVKGRFTISRDNPKNTLFLQMTSLRSEDTAMYYCARRGMITTGAWFAYWGQGTLVTVSA
VL: DILLTQSPAILSVSPGERVSFSCRASQRIGTSIHWYQQRTNGSPRLLIKYASESISGIPSRFSGSGSGTDFTLSINSVESEDIADYYCQQSYIWPFTFGSGTKLEIK
notes: Mouse monoclonal antibody from a hybridoma (Balb/C mouse immunised with Peptide 1-KLH)
In the case of B1, the S/N ratio in experiment [1] was determined as 226; in experiment [3] it was 2.7; in experiment [4], 47.3; in experiment [5], 525. Besides, the Abs450 in the experiment with rfCK18 (239-396) was 0.017. Also, the “fCK18 concentration detectable (S/N ratio of 2 or more)” value in experiment [2] is at least 0.28 ng/mL. In addition, the “fold detection sensitivity compared with Comparative Example 1 (M30 antibody)” value in experiment [2] is about 8 fold.

B2: K18-328 antibody (antibody, V domains shown)
VH: QVHLQQSAAELARPGASVKMSCKASGYTFTNYTIHWIKQRPGQGLEWIGYINPSSGYTDYNQNFKDKTTLTADKSSTTVYMQLSSLTSEDSAVYYCARQIPFAYWGQGTLVTVSA
VL: not shown
notes: Mouse monoclonal antibody from a hybridoma (immunogen full length rCK18)
As for B2, the Abs450 came to 0.89 with rfCK18 (127-430) and 0.525 in the experiment with rfCK18 (239-396).
